B1: Encapsulin cargo protein C, non-tagged, from the multi-gene construct BCDP2A (natural protein, Myxococcus xanthus, UniProt Q1D3Y8 1-130, looked up)
chain: MPQTNPFHSLVPRKMTDTELARSIRLNIEAELDAINLYAAHIDATDNEDAKAILQHVMDEEREHAALFWELIARLDPEQAAHAKEAVEKYRLITSGASHEAVEAVGKEGAAPSPADVTPEKRLTVGSLRR
notes: MxEncC, ferritin-like native cargo protein of Myxococcus xanthus encapsulin, expressed from a single reading frame with B and D separated by P2A peptides; P2A skipping probably leaves residues of the P2A peptide on the proteins; also called MxEncC; EncC
B2: Encapsulin cargo protein B, non-tagged, from the multi-gene construct BCDP2A (natural protein, Myxococcus xanthus, UniProt Q1D6H3 1-158, looked up)
chain: MAGPPDSDLDDVARIRLVLARELETINEYEAYARASSNPEVRAFFQHLAAEEKEHVSEAVHMLRMLDSGQNDHFAKPFVPGHFQAAEAPAPATVHVPTPDGPAFSVNGRNGRLPSEPPTSLPPQRLLYGLPAPPPAVESHPLTVGSLRRGGGGSGSGR
notes: MxEncB, ferritin-like native cargo protein of Myxococcus xanthus encapsulin, expressed from a single reading frame with C and D separated by P2A peptides; P2A skipping probably leaves residues of the P2A peptide on the proteins; also called MxEncB; EncB
B3: Encapsulin cargo protein D, non-tagged, from the multi-gene construct BCDP2A (natural protein, Myxococcus xanthus, UniProt Q1D9P3 1-109, looked up)
chain: MAKNSNPSAFDRDFGYLMPFLDRVAAAASDLEDASARAELTRLMVEEKARWQRIQELLGGAGGRGAAAPTPAREAPAEAPRLARGSADELHEAAPFATGLTVGSLRGSR
notes: MxEncD, native cargo protein of Myxococcus xanthus encapsulin, expressed from a single reading frame with B and C separated by P2A peptides; P2A skipping probably leaves residues of the P2A peptide on the proteins; also called MxEncD; EncD

The binders below were run against T1, MxEncA^FLAG, encapsulin shell protein A from Myxococcus xanthus with C-terminal FLAG tag (Myxococcus xanthus, UniProt Q1D6H4 1-287) (assay: native gel or EMSA; Blue Native PAGE (NativePAGE 3-12% Bis-Tris) of material eluted from the anti-FLAG Co-IP or the Strep-Tactin purification; Coomassie or silver stain). Settings: both partners purified.
T1 construct: MxEncA, encapsulin shell protein of Myxococcus xanthus, mammalian codon-optimized synthetic gene; A^FLAG printed as 32.9 kDa; Assembles into shells of 60 (T = 1) or 180 (T = 3) subunits; also called nanoshell; source: also purified by anti-FLAG beads and FLAG-peptide elution; not shown: FLAG, C-terminal, kept

Binding result, binds:
B1
B2
B3

Source: publication PMC5959871, “Bacterial encapsulins as orthogonal compartments for mammalian cell engineering” (Nature Communications, 2018)
